# T1: Recombinant cynomolgus monkey IL-23 (cynomolgus monkey)
# T1 construct: IL-23p19 subunit of cynomolgus monkey IL-23; IL-12p40 subunit of cynomolgus monkey IL-23; also called cIL-23; IL-23 from cynomolgus monkey; source: bought: Fusion Antibodies (custom preparation)
# T1 chain 1: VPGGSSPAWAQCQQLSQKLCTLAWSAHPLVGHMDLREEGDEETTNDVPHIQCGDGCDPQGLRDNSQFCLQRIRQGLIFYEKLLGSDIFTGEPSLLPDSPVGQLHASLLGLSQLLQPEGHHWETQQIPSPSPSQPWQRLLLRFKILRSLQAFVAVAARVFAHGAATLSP
# T1 chain 2: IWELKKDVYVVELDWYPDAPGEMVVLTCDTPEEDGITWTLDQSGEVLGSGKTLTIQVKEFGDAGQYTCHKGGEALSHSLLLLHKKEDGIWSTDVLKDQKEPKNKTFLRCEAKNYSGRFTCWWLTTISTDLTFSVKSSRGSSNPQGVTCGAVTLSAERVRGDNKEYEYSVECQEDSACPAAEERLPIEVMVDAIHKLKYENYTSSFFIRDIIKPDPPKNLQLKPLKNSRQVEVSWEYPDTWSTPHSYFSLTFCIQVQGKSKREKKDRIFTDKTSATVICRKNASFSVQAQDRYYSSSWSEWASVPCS
# T2: Recombinant Human IL-23 (human, UniProt Q9NPF7 20-189; P29460 23-328)
# T2 construct: IL-23p19 subunit of human IL-23; IL-12p40 subunit, shared with IL-12; Heterodimer of p19 and p40; also called interleukin-23; source: bought: Sino Biologicals
# T2 sequence (looked up) 1: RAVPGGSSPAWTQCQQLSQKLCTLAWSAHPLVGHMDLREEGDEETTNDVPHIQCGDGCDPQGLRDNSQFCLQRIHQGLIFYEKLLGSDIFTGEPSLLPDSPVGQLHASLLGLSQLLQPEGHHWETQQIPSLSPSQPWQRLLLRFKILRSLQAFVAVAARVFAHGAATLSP
# T2 sequence (looked up) 2: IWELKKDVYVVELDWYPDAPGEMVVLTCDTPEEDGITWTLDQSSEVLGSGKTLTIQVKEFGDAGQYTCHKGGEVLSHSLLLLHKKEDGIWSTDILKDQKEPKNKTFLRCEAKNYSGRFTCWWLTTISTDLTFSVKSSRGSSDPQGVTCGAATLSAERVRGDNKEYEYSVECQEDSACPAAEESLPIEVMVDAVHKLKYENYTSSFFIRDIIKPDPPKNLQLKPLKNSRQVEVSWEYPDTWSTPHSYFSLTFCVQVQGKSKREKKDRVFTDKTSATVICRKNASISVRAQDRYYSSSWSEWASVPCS
# B1: Vorabody V900, anti-IL-23 p19-specific single domain antibody (VHH)
# VHH: DVQLVESGGGQVQPGGSLSLSCESSVSIWSFKVMGWFRQVPGKQRELVATITTGGSPDYSDSVKGRFTISRDYDKRTLYLQMNSLKPEDTAVYYCAGRLWAHITSSGHDVWGQGTQVTVSS
# notes: 121 amino acids, 13.2 kDa; also called anti-IL-23 (V900); source: S. cerevisiae or Pichia pastoris shake flask cultures, purified (CaptoS ion exchange chromatography)
# B2: single domain antibody 12G1, unoptimised anti-IL-23 domain antibody (VHH)
# VHH: EVQLVESGGGLVQPGGSLRLSCAASVSIWSFKVMGWYRQVPGKQRELVATITTGGSPDYADSVKGRFTMSRDYDKRTVFLEMDSVKPEDAAVYYCNGRLWAHLTSSGHDVWGQGTRVTVSS
# notes: llama-derived, isolated by phage display after immunisation with human IL-23; Parent of V900; also called clone 12G1; not shown: His6, C-terminal, kept; FLAG, C-terminal, kept
# B3: Recombinant Human IL-23R-FC (Fc fusion, UniProt Q5VWK5 24-355, looked up)
# chain: GITNINCSGHIWVEPATIFKMGMNISIYCQAAIKNCQPRKLHFYKNGIKERFQITRINKTTARLWYKNFLEPHASMYCTAECPKHFQETLICGKDISSGYPPDIPDEVTCVIYEYSGNMTCTWNAGKLTYIDTKYVVHVKSLETEEEQQYLTSSYINISTDSLQGGKKYLVWVQAANALGMEESKQLQIHLDDIVIPSAAVISRAETINATVPKTIIYWDSQTTIEKVSCEMRYKATTNQTWNVKEFDTNFTYVQQSEFYLEPNIKYVFQVRCQETGKRYWQPWSSLFFHKTPETVPQVTSKAFQHDTWNSGLTVASISTGHLTSDNRGDIG
# notes: source: bought: R&D systems
# Columns and labels:
# [1] = biological target: T3, Recombinant Human IL-23 (human, UniProt Q9NPF7;P29460); test: ELISA; human IL-23/IL-23R receptor/ligand inhibition ELISA; block buffer 1% BSA in PBS pH 7.4 with 4% Marvel milk; 0.1 mM PMSF added for trypsin-treated V56B2; protocol in the Supplementary Methods; details: both partners purified
# T3 construct: IL-23p19 subunit of human IL-23; IL-12p40 subunit, shared with IL-12; Heterodimer of p19 and p40; also called interleukin-23; source: bought: Sino Biologicals
# [2] = biological target: T3, Recombinant Human IL-23; test: cell-based or functional assay
# [3] = biological target: T1, Recombinant cynomolgus monkey IL-23; test: ELISA; cynomolgus monkey IL-23/IL-23R receptor/ligand inhibition ELISA; protocol in the Supplementary Methods; details: both partners purified
# [4] = biological target: T3, Recombinant Human IL-23; test: SPR; Biacore; anti-p40 monoclonal antibody coupled to a CM5 chip and loaded with recombinant human IL-23 at 2 or 0.5 ug/mL; V900 at 0.02, 0.08, 0.3, 1.25 and 5 nM, 300 s on and 300 s off, 30 uL/min; details: both partners purified
# [5] = biological target: T2, Recombinant Human IL-23; test: ELISA; human IL-23/IL-23R receptor/ligand inhibition ELISA; block buffer 1% BSA in PBS pH 7.4 with 4% Marvel milk; 0.1 mM PMSF added for trypsin-treated V56B2; protocol in the Supplementary Methods; details: both partners purified
Binder,IC50 [1] [nM],IC50 of inhibition of IL-17 production from murine splenocytes co-stimulated with murine IL-2 and human IL-23 (cellular potency in mouse splenocytes) [2] [nM],IC50 [3] [nM],Kd [4] [nM],binding result [5]
B1,0.2,10.7,0.7,0.032,
B2,0.2,9.3,,,
B3,,,,,binds
